Results taken from patent US20240108738A1 (Bicycle, published 2024).
Blank lines part the entries; values can stand above or below the binder they belong to. Numbered stars: 1 amine (or outer) side, 2 acyl side, 3 side chain; on linkers, the order of the positions; unused ones are H or OH. Bridge positions count the residues as written; N and C are the ends. Square brackets hold non-standard residues; d marks the D form. Ends that are not written are not given here. * marks the point of attachment. TATA = O=C(CC[*:1])N1CN(C(=O)CC[*:2])CN(C(=O)CC[*:3])C1; Pent4ynoyl = C#CCCC(=O)*; PYA = not defined here

Columns and labels:
[1] = biological target: T1, Human NKp46 Fc tag (Acro Biosystems, NC1-H5257) (human, UniProt O76036 22-255); assay: SPR Method 1 and/or 2
T1 construct: bought; also called Fc-tagged human NKp46
Procedure, shortened: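 Fc-tagged human NKp46 captured on anti-human IgG surface (500–1000 RU); compounds run in PBS-P+ with 2% DMSO at 25 °C, 50 μL/min, 60 s association, 400 s dissociation. Double-referenced, DMSO-corrected; KD from steady-state 1:1 fit, kinetic constants from kinetic 1:1 fit where appropriate.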

[2] = biological target: T2, recombinant human NKp46-Fc fusion biotinylated via Avi-tag (human, UniProt O76036 22-255, limits assumed, biotin on Avi-tag); assay: SPR Method 1
T2 construct: also called biotinylated NKp46
Protocol: SPR experiments were performed to determine kₐ (M⁻¹s⁻¹), kd (s⁻¹), KD (nM) values (where measurable) of various bicyclic peptides to immobilised NKp46.
For analysis of peptide binding to NKp46, a Biacore 3000 instrument was used with a Cytiva Streptavidin chip. Capture of the protein (recombinant human NKp46-Fc fusion biotinylated via Avi-tag) was carried out at 25° C. with HBS-N (10 mM HEPES, 0.15 M NaCl, pH 7.4) as the running buffer and biotinylated NKp46 was captured to a level of 400-800 RU using a dilution of protein to 0.2 μM in buffer. Buffer was then changed to PBS/0.05% Tween 20 and a dilution series of the peptides was prepared in this buffer with a final DMSO concentration of 0.5% with a top peptide concentration of 100 nM-5000 nM and 6 further 2 or 3-fold dilutions. The SPR analysis was run at 25° C. and a flow rate of 50 μl/min with 60 seconds association and 200-400 seconds dissociation time. Data were corrected for DMSO excluded volume effects. All data were double-referenced for blank injections and reference surface using standard processing procedures and data processing and kinetic fitting were performed using Scrubber software, version 2.0c (BioLogic Software). Data were fitted using simple 1:1 binding model allowing for mass transport effects where appropriate.

[3] = biological target: T3, human CD16a F176 variant, biotinylated (human, UniProt P08637 17-208, C-terminally biotinylated); assay: SPR
T3 construct: supplier is told for the AlphaScreen assay only; also called F Variant; FcγRIIIA F variant
Protocol: (§1) The SPR analysis was run at 25° C. at a flow rate of 50 μl/min with 60 seconds association and dissociation between 60 and 200 seconds. Data were corrected for DMSO excluded volume effects. All data were double-referenced for blank injections and reference surface using standard processing procedures and data processing and kinetic fitting were performed using Scrubber software, version 2.0c (BioLogic Software). Data were fitted using simple 1:1 binding model allowing for mass transport effects where appropriate.
(§2) For analysis of peptide binding, a Biacore 8k+ instrument was used with a CM5 chip (Cytiva). All experiments were carried out at 25° C. Streptavidin was immobilized on all flow cells by standard amine coupling chemistry. The running buffer was HBS-N(Cytiva, 10 mM HEPES, 0.15 M NaCl, pH 7.4) and the flow rate was 10 μl/min. The carboxymethyl dextran surface was activated with a 1:1 ratio of 0.4 M 1-ethyl-3-(3-dimethylaminopropyl) carbodiimide hydrochloride (EDC)/0.1 M N-hydroxy succinimide (NHS) (Cytiva) for 420s. Streptavidin (ProSpec, cat no. PRO-791) was diluted to 0.2 mg/ml in 10 mM sodium acetate pH 4.5 and was injected onto the chip surface for 600 s. Residual activated groups were blocked with a 420 s injection of 1 M ethanolamine (pH 8.5). The final surface density was 2000-3000 RU. Biotinylated CD16a was diluted to 5 μg/ml in HBS-N and was captured on flow cell 2 only of the streptavidin chip at a flow rate of 10 μl/min to 1500-2500 RU. The buffer was then changed to PBS-P+(Cytiva) supplemented with 0.5-2% DMSO. […] The flow rate was 30 μl/min with 100 s association and 400 s dissociation. Data were corrected for DMSO volume exclusion effects. All data were double-referenced against blank injections and reference surface response using standard processing procedures. Data processing and kinetic fitting was performed using Biacore Insight Evaluation Software with Extended Screening and Characterization Extension (Cytiva). Data were fitted using steady state affinity 1:1 binding model to determine KD. Data were fitted using kinetic 1:1 binding model to determine kinetic constants where appropriate.

[4] = biological target: T4, human CD16a V176 variant, biotinylated (human, UniProt P08637 17-208, N-terminally biotinylated in-house); assay: SPR
T4 construct: supplier is told for the AlphaScreen assay only; also called V Variant; FcγRIIIA V variant
Protocol: as §1, §2

[5] = biological target: T3, human CD16a F176 variant, biotinylated; assay: AlphaScreen competition vs mouse IgG2a
Protocol: (§3) Bicyclic peptides were evaluated with a CD16a-IgG competition assay using Perkin Elmer AlphaScreen™ technology. Acceptor beads (Perkin Elmer 6762003) were chemically conjugated via a reductive amination reaction with a mouse IgG2a mAb to link via the free amines, based the manufacturer's protocol. Briefly, beads were centrifuged and resuspended in a 130 mM sodium phosphate buffered solution pH 8.0 containing 0.2 mg mAb, 20 mM NaBH₃CN (Sigma 296945) and 0.06% P20 surfactant (Cytiva Life Sciences, BR-1000-54) and incubated on a rotary shaker at 44° C. for 22 hours. Unbound sites were then blocked by adding a final concentration of 3 mg/ml carboxymethoxylamine (CMO) (Sigma C13408), before continuing shaking incubation for a further 1 hour. Beads were washed by centrifugation and resuspension in 100 mM TRIS-HCl pH 8.0 (Sigma T2694), before a final resuspension in PBS (GIBCO 14190)+0.05% Proclin-300 (Sigma 48912-U), at 5 mg/ml and storage at 4° C. until use.
(§4) The assay was performed in white 384 well plates (PerkinElmer, 6007290) using assay buffer 25 mM HEPES (Sigma-Aldrich, H0887), 100 mM NaCl (Sigma-Aldrich, S5150), 0.5% BSA (Sigma-Aldrich, A3294), 0.05% P20 (Cytiva Life Sciences, BR-1000-54), pH7.4 for all dilutions. […] Mouse IgG2a-conjugated acceptor beads described above were added at a final concentration of 20 ug/ml and incubated at room temperature for 30 minutes under subdued lighting. Streptavidin coated donor beads (PerkinElmer, 6760002) were added a final concentration of 20 ug/ml and incubated at room temperature for 60 minutes under subdued lighting. […] Data was normalised to a high control containing all assay components except Bicyclic peptide and fit to a four-parameter non-linear regression in GraphPad Prism 8.0.2 to generate an IC50 value.

[6] = biological target: T4, human CD16a V176 variant, biotinylated; assay: AlphaScreen competition vs mouse IgG2a
Protocol: as §3, §4

[7] = biological target: T5, CD16a/FCgRIIIa (F158 variant) on HEK293 cells, Terbium-labelled (UniProt P08637 17-254, limits assumed, Terbium donor dye); assay: HTRF competition vs IgG-d2 on HEK293 cells
T5 construct: whole, on cells; also called cellular CD16a
Protocol: Binding to cellular CD16a/FCgRIIIa (F158 variant) was determined through competition with IgG for binding to CD16a receptors expressed on HEK293 cells.
The experimental procedure followed the manufacturer's instructions detailed in the product information for the CD16 (FCγRIIIa) kit (Cisbio-6FR3APAG). […] Bicycle peptides were dispensed using Echo compound handler at a top concentration of 20 μM. The competing unlabeled antibodies and bicyclic peptides were added in a three-fold dilution series in Tag-lite buffer into PerkinElmer-ProxiPlate-384 Plus.
The HEK293 cell expressing Terbium-labelled CD16a were thawed and washed in PBS and added to the wells of PerkinElmer-ProxiPlate-384 Plus containing the competitor compounds. […] The data was plotted in Graph pad prism and IC50-values were determined to indicate unlabeled antibody or bicyclic peptide competition for cellular binding to the CD16a receptor.

[8] = biological target: T6, human NKp46 on cells (CHO-K1/NKp46 cells; CD56+ NK cells of human PBMCs) (human, UniProt O76036 22-304); assay: Kd,app, flow cytometry CHO-K1/NKp46
T6 construct: whole, on cells; also called NCR1; CD355
Protocol: Plates were then incubated for 1 hour at room temperature in the dark. Post-incubation, the plates were centrifuged at 500 rpm for 5 minutes and supernatant discarded. Samples were then washed twice in 200 μL of 1× phosphate buffer saline (PBS; Gibco™ 10-010-023) at 500 rpm for 5 minutes. Cells were resuspended in 100 μL of PBS and transferred to a new 96-well V-bottom polypropylene plate (Greiner Bio-One 651201). Plates were centrifuged at 500 rpm for 5 minutes and supernatant discarded.
Preparation of samples for flow cytometry: Zombie Violet™ Fixable Viability Dye (BioLegend® 423113) was prepared as a 1:1000 dilution in PBS and 100 μL of viability dye was added to each well and incubated in the dark at 4° C. for 30 minutes. To ensure NKp46 expression, untreated CHO-K1/NKp46 cells were stained with either anti-human NKp46 or an isotype control. Antibody cocktails were prepared by diluting 1.5 μL of either, PE anti-human NKp46 (BioLegend® 331908; clone 9E2) or PE isotype control IgG1, K (BioLegend® 400112), per 100 μL of stain buffer (1×PBS supplemented with 2% FBS). Cells were resuspended in master mix cocktail (100 μL) and incubated at 4° C. for 30 minutes in the dark. Subsequently, cells were washed 3 times in 100 μL of stain buffer for 5 minutes at 500 rpm and supernatant was discarded. Cells resuspended in 200 μL of stain buffer were kept at 4° C. and in the dark until read by BD FACSCelesta™ flow cytometer.
The binding affinity of the bicyclic peptides were calculated using a four-parameter logistic regression using Prism GraphPad software.

[9] = biological target: T6, human NKp46 on cells (CHO-K1/NKp46 …); assay: Kd,app, flow cytometry, total CD56 population of human PBMCs
Protocol: Cells were resuspended in master mix cocktail (100 μL) and incubated at 4° C. for 30 minutes in the dark. Subsequently, cells were washed 3 times in 100 μL of stain buffer for 5 minutes at 500 rpm and supernatant was discarded.

T6 sequence (O76036 22-304): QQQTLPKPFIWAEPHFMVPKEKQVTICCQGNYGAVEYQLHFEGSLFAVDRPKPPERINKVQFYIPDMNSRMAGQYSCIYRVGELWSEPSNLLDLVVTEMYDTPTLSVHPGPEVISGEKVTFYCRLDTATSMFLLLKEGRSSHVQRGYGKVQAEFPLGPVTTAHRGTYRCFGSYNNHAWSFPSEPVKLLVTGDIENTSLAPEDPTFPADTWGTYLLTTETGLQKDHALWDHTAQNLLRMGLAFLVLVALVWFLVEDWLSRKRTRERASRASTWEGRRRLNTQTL
T2 sequence (O76036 22-255 limits assumed): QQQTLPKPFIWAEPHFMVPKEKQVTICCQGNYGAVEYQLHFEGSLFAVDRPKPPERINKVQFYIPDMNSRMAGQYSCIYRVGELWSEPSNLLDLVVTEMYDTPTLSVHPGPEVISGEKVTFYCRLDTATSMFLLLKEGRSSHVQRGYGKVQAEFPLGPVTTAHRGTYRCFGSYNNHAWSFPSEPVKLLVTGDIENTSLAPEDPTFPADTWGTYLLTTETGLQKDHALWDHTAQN
T1 sequence (O76036 22-255 limits assumed): as above
T4 sequence (P08637 other isoform, or with tags, fused parts or gaps mutant limits assumed): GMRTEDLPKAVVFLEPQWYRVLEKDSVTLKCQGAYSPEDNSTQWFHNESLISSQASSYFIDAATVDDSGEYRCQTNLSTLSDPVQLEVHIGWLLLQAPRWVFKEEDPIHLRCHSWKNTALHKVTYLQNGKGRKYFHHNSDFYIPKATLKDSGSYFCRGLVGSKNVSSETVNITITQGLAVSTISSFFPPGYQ
T3 sequence (P08637 17-208 limits assumed, change not shown): as the sequence (P08637 other isoform, or with tags, fused parts or gaps mutant limits assumed) above, with V160F counted along it
T5 sequence (P08637 17-254 limits assumed, change not shown): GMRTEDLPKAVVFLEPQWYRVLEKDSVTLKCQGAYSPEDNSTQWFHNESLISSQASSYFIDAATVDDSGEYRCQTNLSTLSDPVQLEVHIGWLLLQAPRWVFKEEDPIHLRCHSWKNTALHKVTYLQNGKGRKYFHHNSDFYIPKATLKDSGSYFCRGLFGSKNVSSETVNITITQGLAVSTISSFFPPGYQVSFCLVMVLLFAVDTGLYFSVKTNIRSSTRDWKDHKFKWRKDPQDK

B4: BCY15455 (peptide)
peptide: ACYLPDWLCGDEYCA[dK](Pent4ynoyl)-NH2
modifications: linker 2-9-14 via TATA; not fully specified; also: AF488 label on linker
notes: homodimer of BCY15013; scaffold TATA
Kd [8]: 2.25 nM

B5: BCY15663 (peptide)
peptide: ACYLPDYLCGDEYCAK
modifications: not fully specified; C-terminal D-Lys(PYA) joined to N-(amine-PEG2)-N-bis(PEG3-azide) linker carrying AF488
notes: homodimer of BCY15452; scaffold TATA
Kd [9]: 0.028 nM | Kd [8]: 0.3 nM

B7: BCY15452 (peptide)
peptide: ACYLPDYLCGDEYCAK
modifications: C-terminal D-Lys(PYA)
notes: scaffold TATA
Kd [1]: 13 nM | Kd [2]: 27 nM

B8: BCY15013 (peptide)
peptide: ACYLPDWLCGDEYCA[dK](Pent4ynoyl)-NH2
modifications: linker 2-9-14 via TATA; N-terminus assumed
SMILES: C#CCCC(=O)NCCCC[C@@H](NC(=O)[C@H](C)NC(=O)[C@@H]1CSCCC(=O)N2CN3CN(C2)C(=O)CCSC[C@H](NC(=O)[C@H](CC(C)C)NC(=O)[C@H](Cc2c[nH]c4ccccc24)NC(=O)[C@H](CC(=O)O)NC(=O)[C@@H]2CCCN2C(=O)[C@H](CC(C)C)NC(=O)[C@H](Cc2ccc(O)cc2)NC(=O)[C@@H](NC(=O)[C@H](C)N)CSCCC3=O)C(=O)NCC(=O)N[C@@H](CC(=O)O)C(=O)N[C@@H](CCC(=O)O)C(=O)N[C@@H](Cc2ccc(O)cc2)C(=O)N1)C(N)=O
notes: scaffold TATA
Kd [1]: 59 nM | Kd [2]: 138 nM

Other lines, results leading:

Kd [1]: 783 nM | Kd [2]: 960 nM
B1: BCY15687 (peptide)
peptide: ACNLQAPCMQTGKVCAK
modifications: C-terminal Lys(PYA)
notes: scaffold TATA

Kd [3]: 7370 nM | Kd [4]: 1850 nM | IC50 [5]: 11000 nM | IC50 [6]: 3480 nM | IC50 [7]: 7560 nM
B2: BCY15685 (peptide)
peptide: ACPPTVYCHPLDCAK
modifications: C-terminal Lys(PYA)
notes: scaffold TATA

Kd [8]: 1.48 nM
B3: BCY15922 (peptide)
peptide: ACNLQAPCMQTGKVCAK-NH2
modifications: linker 2-8-15 via TATA (inferred); not fully specified (residue 17); also: AF488 on linker
notes: homodimer of BCY15687; scaffold TATA

Kd [2]: 276 nM
B6: BCY15686 (peptide)
peptide: ACDLTTHNCQWGICAK(PYA)
modifications: linker 2-9-14 via TATA (inferred); reading uncertain
notes: scaffold TATA

Kd [8]: 1.48 nM
B9: BCY15921 (peptide)
peptide: ACDLTTHNCQWGICAK-NH2
modifications: linker 2-9-14 via TATA; not fully specified (residue 16); also: homodimer via shared N-(amine-PEG2)-N-bis(PEG3-azide) linker
notes: scaffold TATA
